From PMC10415144, “Structural insights into CodY activation and DNA recognition” (Nucleic Acids Research, 2023)

Key:
[1] = molecular target: T1, EfCodY (Enterococcus faecalis) (UniProt Q834K5); test: BLI; conditions: BLI: 20 mM Tris-HCl pH 8, 150 mM NaCl, 2 mM MgCl2, 0.1% NP-40, 25 C, 2 mM GTP and/or 10 mM Ile/Leu/Val as stated
T1 sequence: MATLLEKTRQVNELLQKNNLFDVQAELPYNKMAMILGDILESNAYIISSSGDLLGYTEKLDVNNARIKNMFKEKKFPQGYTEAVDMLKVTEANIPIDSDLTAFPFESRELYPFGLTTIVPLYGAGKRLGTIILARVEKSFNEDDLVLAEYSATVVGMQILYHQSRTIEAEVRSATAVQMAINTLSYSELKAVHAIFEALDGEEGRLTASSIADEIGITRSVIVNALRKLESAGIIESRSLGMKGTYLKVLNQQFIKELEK

[2] = molecular target: Staphylococcus aureus CodY (SaCodY), full length (Staphylococcus aureus) (UniProt Q2FHI3); test: SEC-MALS; Superdex 75 10/300, 0.4 ml/min; 200 ul of 35 uM CodY, ligand-free, 20 mM Tris-HCl pH 8, 200 mM NaCl

single 15-nt consensus site
Kd ([1]; 10 mM Leu (implied), values printed as pair, assigned by order): 706 nM

26-nt overlapping sites
Kd [1]: 710 nM

Staphylococcus aureus CodY (SaCodY), full length (from UniProt Q2FHI3 1-257) (natural protein)
stoichiometry N [2]: 2
